Results on eleven molecules are retold here after patent publication US12098378B2, “Anti-fungal polypeptides” (priority 2020, dated 2024).

Where a chain is given by its changes, count along the chain named. Names and notes keep the numbering of the source.

In one assay the test system is Fraction 3. Kind of assay: ELISA with biotinylated liposomes on streptavidin-coated plates. It counts as binding, Botrytis cinerea. Conditions: screen for additional Fraction 3 binders (FIG. 13). The source says: Dissociation constants (Kd) can be estimated based on the results of an ELISA. In equilibrium analysis as in ELISA, the Kd can be calculated from the equilibrium binding response. Where the ELISA plate wells are coated with a target antigen, and where the target antigen may be a lipid-containing fraction of the membrane of Botrytis cinerea, such a method may further use a range of concentrations of a polypeptide binding the target antigen. Where the ELISA generally provides a quantitative adsorption measure for each polypeptide concentration representing binding of the polypeptide to the target antigen, the range of concentration of a polypeptide may for example be 0.5, 1, 2.5, 5, and 10 μM. The most suitable range of concentrations used can vary depending on the affinity of the polypeptide to the target antigen. The corresponding absorption values as determined by ELISA may result in a sigmoid curve when absorption values are plotted against the logarithmic conversion of the polypeptide concentrations. This sigmoid curve may serve to define an IC50 value. Where this IC50 is the concentration of polypeptide where the corresponding absorption value is 50% of the saturated value as estimated by the maximum of the sigmoidal function, the Kd can be estimated by 1/Ka were the association constant (Ka) can be estimated as 1/IC50. Thus Kd corresponds to the analyte concentration that reaches equilibrium at 50% binding saturation. Commonly computation methods can be used for these calculations. For example, this can be done using GraphPad. In some embodiments, the Kd may be determined by surface plasmon resonance (SPR).
The above-mentioned method for the formation of liposomes (Example 12) was modified with the addition of a biotinylated lipid (12:0 Biotinyl M G (1-(12-N-biotin)aminododecanoyl-rac-glycerol), Sigma Aldrich), to allow for use of these liposomes for ELISA using streptavidin-coated plates (Pierce™ Streptavidin Coated High Capacity Plates, Clear, 96-Well, blocked with SuperBlock™ Buffer, Thermo Fisher Scientific).
To estimate the dissociation constant Kd value of 10G11 binding to Fraction 3, the ELISA set-up with biotinylated liposomes from Fraction 3 as described in Example 13 was used. 10G11 polypeptide was added in the following concentrations: 0.5, 1, 2.5, 5, and 10 μM, prepared by a serial dilution in phosphate buffer. […] This plot was used to estimate the Kd dissociation constant using GraphPad. Where non-linear regression fitting was used.
A general note: In an ELISA, binding on a coated surface is turned into a signal by an enzyme label.

Assay [1] concerns Botrytis cinerea R16. Conditions: several test strains, including Botrytis cinerea R16; WO2014/177595 A1 and WO2014/191146 A1; cited from earlier work.
Assay [2] deals with Botrytis cinerea R16. Kind of assay: In vitro antifungal assay, IncuCyte Zoom monitoring of fungal growth from spore suspension. It counts as cell-based. As to the method:
Two-fold dilutions of purified VHH 10G11Q were prepared in 96-well microtiter plates. To 20 μl of these dilutions and to 20 μl of water as a control, 80 μl of fungal spore suspension (1 E+05 spores/ml in half strength potato dextrose broth (PDB)) were added, starting with a final VHH 10G11Q concentration of 10 μM. The test plates were incubated for 36 h at 25° C. using the IncuCyte Zoom live cell imaging system. All tests were performed in at least 2 replicates.
Two-fold dilutions of purified VHH 10G11Q and 41D01 were prepared in 96-well microtiter plates. To 20 μl of these dilutions and to 20 μl of water as a control, 80 μl of fungal spore suspension (1 E+05 spores/ml in half strength potato dextrose broth (PDB)) were added, starting with a final VHH 10G11Q concentration of 40 μM. The test plates were incubated for 48 h at 25° C. using the IncuCyte Zoom live cell imaging system. All tests were performed in at least 2 replicates.
Microplate graphs were generated using the time plot feature in the graph/export menu of the IncuCyte® Base Analysis Software. Raw data for confluence of treated samples at mid log growth were exported to GraphPad Prism 8 and plotted as a semi logarithmic function of the standard concentrations. IC50 values are extrapolated after fitting the data with a four-parameter logistic regression curve. Pathogen sensitivity is measured based on the IC50, which refers to the concentration (μM) that inhibits 50% of spore germination and/or mycelial growth.

The test system of assay [3] is Colletotrichum orbiculare. Kind of assay: Control of anthracnose on squash in glasshouse. Type of assay: in vivo. The following applies: 175, 350, 700 g ai/ha, 4 applications; until 2 weeks after the last application; vs non-treated inoculated control (FIG. 18). As to the method: Four replicates of pot-grown squash plants (2 plants/pot) were sprayed with 125 ml aqueous suspension, containing a concentration of active ingredient as described in Table 2. Four applications were done spaced 6 or 7 days apart. Plants were inoculated once with Colletotrichum orbiculare two days after the first application (application A) of active ingredient. The efficacy of 10G11Q was compared to that of a non-treated control and the chemical reference Bravo WS (Chlorothalonil).
Disease severity is recorded as percent severity on a scale of 0-100%. Recording started when first symptoms appeared followed by regular assessment till 2 weeks after the fourth application (application D) of the active ingredient.

In assay [4] the test system is Botrytis cinerea R16. Kind of assay: Prolonged incubation antifungal assay followed over 14 days. Type of assay: cell-based. Conditions: followed over a period of 14 days (FIG. 9). As to the method:
Two-fold dilutions of purified VHH 10G11Q were prepared in 96-well microtiter plates. To 20 μl of these dilutions and to 20 μl of water as a control, 80 μl of fungal spore suspension (1 E+05 spores/ml in half strength potato dextrose broth (PDB)) were added, starting with a final VHH 10G11Q concentration of 10 μM. […] All tests were performed in at least 2 replicates.

B1: 10E11Q: VHH polypeptide, SEQ ID NO: 3 (protein)
VHH: QVQLQESGGGLVQAGGSLRLSCAASGTIFRPTAMGWYRQAPGKERELVATITTGGSTKYADSVKGRFTISRGNAKNTVYLQMSSLKPEDTAVYYCNAQWGVRTRDYWGQGTQVTVSS
For B1, in the assay on Fraction 3, the “binding to Fraction 3 by ELISA” value was “Fraction 3 binding”.

B2: 41D01: anti-glucosylceramide binding VHH described in WO2014/177595 A1 and WO2014/191146 A1 (protein)
VHH: QVQLQESGGGLVQAGGSLRLSCAASGRTFSRYGMGWFRQLPGKQRELVTSITRGGTTTYADSVKGRFTISRDNAKNTVYLQMNSLKPEDTAVYYCNARSIWRDYWGQGTQVTVSS
modifications: left off: small tags and cut ends
With B2, the “antifungal activity among anti-glucosylceramide binding VHHs” value in the assay on Botrytis cinerea R16 [1] is reported as “most prominent antifungal activity”.

B3: 10G11Q: VHH polypeptide, SEQ ID NO: 1, begins with a Q residue (protein)
VHH: QVQLVESGGGLVQAGGSLRLSCAASRSIFSINAMDWYRQAPGKQREWVAGITRGGTTKYADSVKGRFTISRDNAKKKVYLQMNSLKPEDTAVYYCNVLRGEQPWTRDYWGQGTQVTVSS
Regarding B3, the “% fungal growth (total green object area) in function of VHH concentration” value in the assay with Botrytis cinerea R16 [2] (two-fold dilutions from 10 μM, 36 h at 25° C. (FIG. 1)) is given as “clear dose-dependent growth inhibition pattern”. Also, the “growth inhibition compared to VHH 41D01” value in the assay with Botrytis cinerea R16 [2] (two-fold dilutions from 40 μM, 48 h at 25° C. (FIG. 2)) is “more prominent growth inhibition pattern”. The “percent severity of anthracnose on squash” value in assay [3] is “clear and dose-related growth inhibition pattern”.

B4: Mutant 11: 10G11 charge variant: S27K, I28K, S30K in CDR1 and W100aK, T100bK in CDR3 (SEQ ID NO: 17) (protein)
VHH: B3 VHH with Q1D, S27K, I28K, S30K, W104K, T105K
For the molecule B4, in the assay on Botrytis cinerea R16 [2] (assay as in Example 5 (FIG. 6)), the “antifungal activity of charge variants relative to 10G11” value is given as “significant increase in antifungal activity” and the “increase in anti-fungal activity over 10G11” value is reported as “up to 5 fold”. Moreover, the “effect on preventing spore outgrowth” value with Botrytis cinerea R16 [4] is recorded as “sustained effect on preventing spore outgrowth”.

B5: Mutant 9: 10G11 charge variant: S27K, I28K and S30K substitutions in CDR1 (SEQ ID NO: 15) (protein)
VHH: B3 VHH with Q1D, S27K, I28K, S30K
Regarding B5, the “antifungal activity of charge variants relative to 10G11” value with Botrytis cinerea R16 [2] (assay as in Example 5 (FIG. 6)) is “significant increase in antifungal activity”. For the same molecule, the “effect on preventing spore outgrowth” value in the assay with Botrytis cinerea R16 [4] is recorded as “sustained effect on preventing spore outgrowth”.

B6: Mutant 8: 10G11 charge variant: S27H, I28H, S30H in CDR1 and W100aH, T100bH in CDR3 (SEQ ID NO: 14) (protein)
VHH: B3 VHH with Q1D, S27H, I28H, S30H, W104H, T105H
For B6, the “antifungal activity of charge variants relative to 10G11” value in the assay with Botrytis cinerea R16 [2] (assay as in Example 5 (FIG. 6)) was “significant increase in antifungal activity”.

B7: Mutant 7: 10G11 charge variant: W100aH and T100bH substitutions in CDR3 (SEQ ID NO: 13) (protein)
VHH: B3 VHH with Q1D, W104H, T105H
As for B7, in the assay with Botrytis cinerea R16 [2] (assay as in Example 5 (FIG. 6)), the “antifungal activity of charge variants relative to 10G11” value is given as “on par antifungal activity with 10G11”.

B8: Mutant 10: 10G11 charge variant: W100aK and T100bK substitutions in CDR3 (SEQ ID NO: 16) (protein)
VHH: B3 VHH with Q1D, W104K, T105K
Take B8: the “antifungal activity of charge variants relative to 10G11” value with Botrytis cinerea R16 [2] (assay as in Example 5 (FIG. 6)) is on record as “significant increase in antifungal activity”.

B9: Mutant 6: 10G11 charge variant: S27H, I28H and S30H substitutions in CDR1 (SEQ ID NO: 12) (protein)
VHH: B3 VHH with Q1D, S27H, I28H, S30H
Regarding B9, in the assay on Botrytis cinerea R16 [2] (assay as in Example 5 (FIG. 6)), the “antifungal activity of charge variants relative to 10G11” value was “on par antifungal activity with 10G11”.

B10: 12C03Q: VHH polypeptide, SEQ ID NO: 5 (protein)
VHH: QVQLQESGGGLVQAGDSLRLSCAASISDRAFSRHVMGWFRQPPGKEREFVAAIGWTGRRTYYADSVKGRFTISRDNAMNTVYLQMNSLKPEDTAVYYCAASHFYSVSFEINDYDYWGQGTQVTVSS
On to B10, for which the “binding to Fraction 3 by ELISA” value in the assay with Fraction 3 was “Fraction 3 binding”.

B11: 10G11Q-His: 10G11Q polypeptide with a C-terminal addition of a 6× His-Tag (SEQ ID NO: 148) (protein)
VHH: QVQLQESGGGLVQAGGSLRLSCAASRSIFSINAMDWYRQAPGKQREWVAGITRGGTTKYADSVKGRFTISRDNAKKKVYLQMNSLKPEDTAVYYCNVLRGEQPWTRDYWGQGTQVTVSSAAAHHHHHH
modifications: C-terminal 6xHis tag
Take B11: in the assay with Botrytis cinerea R16 [2] (assay as in Example 5 (FIG. 4)), the “antifungal activity of his-tagged variant relative to 10G11Q” value is “significantly improved anti-fungal activity”.
